Source: US20210032299A1 (Eli Lilly, published 2021)
Starred links: 1 amine or outer side, 2 acyl side, 3 side chain; linkers in the order of their positions; H or OH if unused. Non-standard residues stand in square brackets, D forms with d. Groups on a side chain read outwards from the residue. No end group written: not given here. *: point of attachment. C20 diacid = O=C(O)CCCCCCCCCCCCCCCCCCC(=O)*; C18 diacid = O=C(O)CCCCCCCCCCCCCCCCC(=O)*; γGlu = O=C(O)[C@H](CCC(=O)[*:2])N[*:1]; αMeF = C[C@](N)(Cc1ccccc1)C(=O)O; 4Pal = N[C@@H](Cc1ccncc1)C(=O)O; AEEA = NCCOCCOCC(=O)O; Aib = CC(C)(N)C(=O)O

T1: human glucose-dependent insulinotropic peptide receptor (human, UniProt P48546 22-466)
T1 sequence (looked up): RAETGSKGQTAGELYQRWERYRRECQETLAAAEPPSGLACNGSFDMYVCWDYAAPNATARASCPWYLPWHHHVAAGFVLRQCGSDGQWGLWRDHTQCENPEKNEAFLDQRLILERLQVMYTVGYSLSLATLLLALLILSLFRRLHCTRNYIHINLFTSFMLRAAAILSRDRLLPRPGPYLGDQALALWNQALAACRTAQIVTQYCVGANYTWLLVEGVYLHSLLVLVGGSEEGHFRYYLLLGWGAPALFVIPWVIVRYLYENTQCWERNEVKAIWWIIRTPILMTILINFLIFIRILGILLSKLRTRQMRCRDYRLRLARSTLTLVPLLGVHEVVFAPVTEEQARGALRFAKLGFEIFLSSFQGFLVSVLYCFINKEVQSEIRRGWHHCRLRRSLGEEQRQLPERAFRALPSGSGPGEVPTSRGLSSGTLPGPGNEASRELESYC

B1: Example 22 (peptide)
peptide: Y[Aib]EGTFISDYSILLDKK([AEEA-AEEA-γGlu-C18 diacid])HQ[Aib]DFVE[4Pal]LLAGGPSSGAPPPS-NH2
modifications: N-terminus assumed
SMILES: CC[C@H](C)[C@H](NC(=O)[C@H](CO)NC(=O)[C@H](Cc1ccc(O)cc1)NC(=O)[C@H](CC(=O)O)NC(=O)[C@H](CO)NC(=O)[C@@H](NC(=O)[C@H](Cc1ccccc1)NC(=O)[C@@H](NC(=O)CNC(=O)[C@H](CCC(=O)O)NC(=O)C(C)(C)NC(=O)[C@@H](N)Cc1ccc(O)cc1)[C@@H](C)O)[C@@H](C)CC)C(=O)N[C@@H](CC(C)C)C(=O)N[C@@H](CC(C)C)C(=O)N[C@@H](CC(=O)O)C(=O)N[C@@H](CCCCN)C(=O)N[C@@H](CCCCNC(=O)COCCOCCNC(=O)COCCOCCNC(=O)CC[C@H](NC(=O)CCCCCCCCCCCCCCCCC(=O)O)C(=O)O)C(=O)N[C@@H](Cc1c[nH]cn1)C(=O)N[C@@H](CCC(N)=O)C(=O)NC(C)(C)C(=O)N[C@@H](CC(=O)O)C(=O)N[C@@H](Cc1ccccc1)C(=O)N[C@H](C(=O)N[C@@H](CCC(=O)O)C(=O)N[C@@H](Cc1ccncc1)C(=O)N[C@@H](CC(C)C)C(=O)N[C@@H](CC(C)C)C(=O)N[C@@H](C)C(=O)NCC(=O)NCC(=O)N1CCC[C@H]1C(=O)N[C@@H](CO)C(=O)N[C@@H](CO)C(=O)NCC(=O)N[C@@H](C)C(=O)N1CCC[C@H]1C(=O)N1CCC[C@H]1C(=O)N1CCC[C@H]1C(=O)N[C@@H](CO)C(N)=O)C(C)C
B2: Example 15 (peptide)
peptide: Y[dA]EGTFISDYSILLDKK([AEEA-AEEA-γGlu-C20 diacid])HQQDFVNYLLAQGPSSGAPPPS-NH2
modifications: N-terminus assumed
SMILES: CC[C@H](C)[C@H](NC(=O)[C@H](CO)NC(=O)[C@H](Cc1ccc(O)cc1)NC(=O)[C@H](CC(=O)O)NC(=O)[C@H](CO)NC(=O)[C@@H](NC(=O)[C@H](Cc1ccccc1)NC(=O)[C@@H](NC(=O)CNC(=O)[C@H](CCC(=O)O)NC(=O)[C@@H](C)NC(=O)[C@@H](N)Cc1ccc(O)cc1)[C@@H](C)O)[C@@H](C)CC)C(=O)N[C@@H](CC(C)C)C(=O)N[C@@H](CC(C)C)C(=O)N[C@@H](CC(=O)O)C(=O)N[C@@H](CCCCN)C(=O)N[C@@H](CCCCNC(=O)COCCOCCNC(=O)COCCOCCNC(=O)CC[C@H](NC(=O)CCCCCCCCCCCCCCCCCCC(=O)O)C(=O)O)C(=O)N[C@@H](Cc1c[nH]cn1)C(=O)N[C@@H](CCC(N)=O)C(=O)N[C@@H](CCC(N)=O)C(=O)N[C@@H](CC(=O)O)C(=O)N[C@@H](Cc1ccccc1)C(=O)N[C@H](C(=O)N[C@@H](CC(N)=O)C(=O)N[C@@H](Cc1ccc(O)cc1)C(=O)N[C@@H](CC(C)C)C(=O)N[C@@H](CC(C)C)C(=O)N[C@@H](C)C(=O)N[C@@H](CCC(N)=O)C(=O)NCC(=O)N1CCC[C@H]1C(=O)N[C@@H](CO)C(=O)N[C@@H](CO)C(=O)NCC(=O)N[C@@H](C)C(=O)N1CCC[C@H]1C(=O)N1CCC[C@H]1C(=O)N1CCC[C@H]1C(=O)N[C@@H](CO)C(N)=O)C(C)C
B3: Example 14 (peptide)
peptide: Y[dA]EGTFISDYSILLDKK([AEEA-AEEA-γGlu-C20 diacid])HQQDFVEWLLAQGPSSGAPPPS-NH2
modifications: N-terminus assumed
SMILES: CC[C@H](C)[C@H](NC(=O)[C@H](CO)NC(=O)[C@H](Cc1ccc(O)cc1)NC(=O)[C@H](CC(=O)O)NC(=O)[C@H](CO)NC(=O)[C@@H](NC(=O)[C@H](Cc1ccccc1)NC(=O)[C@@H](NC(=O)CNC(=O)[C@H](CCC(=O)O)NC(=O)[C@@H](C)NC(=O)[C@@H](N)Cc1ccc(O)cc1)[C@@H](C)O)[C@@H](C)CC)C(=O)N[C@@H](CC(C)C)C(=O)N[C@@H](CC(C)C)C(=O)N[C@@H](CC(=O)O)C(=O)N[C@@H](CCCCN)C(=O)N[C@@H](CCCCNC(=O)COCCOCCNC(=O)COCCOCCNC(=O)CC[C@H](NC(=O)CCCCCCCCCCCCCCCCCCC(=O)O)C(=O)O)C(=O)N[C@@H](Cc1c[nH]cn1)C(=O)N[C@@H](CCC(N)=O)C(=O)N[C@@H](CCC(N)=O)C(=O)N[C@@H](CC(=O)O)C(=O)N[C@@H](Cc1ccccc1)C(=O)N[C@H](C(=O)N[C@@H](CCC(=O)O)C(=O)N[C@@H](Cc1c[nH]c2ccccc12)C(=O)N[C@@H](CC(C)C)C(=O)N[C@@H](CC(C)C)C(=O)N[C@@H](C)C(=O)N[C@@H](CCC(N)=O)C(=O)NCC(=O)N1CCC[C@H]1C(=O)N[C@@H](CO)C(=O)N[C@@H](CO)C(=O)NCC(=O)N[C@@H](C)C(=O)N1CCC[C@H]1C(=O)N1CCC[C@H]1C(=O)N1CCC[C@H]1C(=O)N[C@@H](CO)C(N)=O)C(C)C
B4: Example 16 (peptide)
peptide: YXEGTFISDYSILLDKKAQXDFVEWLLAQGPSSGAPPPS
modifications: D-Ala2; K17((2-[2-(2-Amino-ethoxy)-ethoxy]-acetyl)2-(γ-Glu)-CO-(CH2)16-CO2H); Aib20; C-terminal amide
B5: Example 18 (peptide)
peptide: YXEGTFISDYSILLDKKAQXDFVNXLLAQGPSSGAPPPS
modifications: D-Ala2; K17((2-[2-(2-Amino-ethoxy)-ethoxy]-acetyl)2-(γ-Glu)-CO-(CH2)16-CO2H); Aib20; 4-Pal25; C-terminal amide
B6: Example 19 (peptide)
peptide: YXEGTFISDYSILLDKKAQXDFVNWLLAGGPSSGAPPPS
modifications: D-Ala2; K17((2-[2-(2-Amino-ethoxy)-ethoxy]-acetyl)2-(γ-Glu)-CO-(CH2)16-CO2H); Aib20; C-terminal amide
B7: Example 20 (peptide)
peptide: YXEGTFISDYSILLDKKAQXEFVNWLLAQGPSSGAPPPS
modifications: D-Ala2; K17((2-[2-(2-Amino-ethoxy)-ethoxy]-acetyl)2-(γ-Glu)-CO-(CH2)16-CO2H); Aib20; C-terminal amide
B8: Example 17 (peptide)
peptide: YXEGTFISDYSILLDKKAQXDFVNWLLEQGPSSGAPPPS
modifications: D-Ala2; K17((2-[2-(2-Amino-ethoxy)-ethoxy]-acetyl)2-(γ-Glu)-CO-(CH2)16-CO2H); Aib20; C-terminal amide
B9: Example 21 (peptide)
peptide: Y[Aib]EGTFISDYSIALDKK([AEEA-AEEA-γGlu-C18 diacid])HQ[Aib]DFVE[4Pal]LLAGGPSSGAPPPS-NH2
modifications: N-terminus assumed
SMILES: CC[C@H](C)[C@H](NC(=O)[C@H](CO)NC(=O)[C@H](Cc1ccc(O)cc1)NC(=O)[C@H](CC(=O)O)NC(=O)[C@H](CO)NC(=O)[C@@H](NC(=O)[C@H](Cc1ccccc1)NC(=O)[C@@H](NC(=O)CNC(=O)[C@H](CCC(=O)O)NC(=O)C(C)(C)NC(=O)[C@@H](N)Cc1ccc(O)cc1)[C@@H](C)O)[C@@H](C)CC)C(=O)N[C@@H](C)C(=O)N[C@@H](CC(C)C)C(=O)N[C@@H](CC(=O)O)C(=O)N[C@@H](CCCCN)C(=O)N[C@@H](CCCCNC(=O)COCCOCCNC(=O)COCCOCCNC(=O)CC[C@H](NC(=O)CCCCCCCCCCCCCCCCC(=O)O)C(=O)O)C(=O)N[C@@H](Cc1c[nH]cn1)C(=O)N[C@@H](CCC(N)=O)C(=O)NC(C)(C)C(=O)N[C@@H](CC(=O)O)C(=O)N[C@@H](Cc1ccccc1)C(=O)N[C@H](C(=O)N[C@@H](CCC(=O)O)C(=O)N[C@@H](Cc1ccncc1)C(=O)N[C@@H](CC(C)C)C(=O)N[C@@H](CC(C)C)C(=O)N[C@@H](C)C(=O)NCC(=O)NCC(=O)N1CCC[C@H]1C(=O)N[C@@H](CO)C(=O)N[C@@H](CO)C(=O)NCC(=O)N[C@@H](C)C(=O)N1CCC[C@H]1C(=O)N1CCC[C@H]1C(=O)N1CCC[C@H]1C(=O)N[C@@H](CO)C(N)=O)C(C)C
B10: Example 23 (peptide)
peptide: Y[Aib]EGT[αMeF]ISDYSIALDKK([AEEA-AEEA-γGlu-C18 diacid])HQ[Aib]DFVE[4Pal]LLAGGPSSGAPPPS-NH2
modifications: N-terminus assumed
SMILES: CC[C@H](C)[C@H](NC(=O)[C@H](CO)NC(=O)[C@H](Cc1ccc(O)cc1)NC(=O)[C@H](CC(=O)O)NC(=O)[C@H](CO)NC(=O)[C@@H](NC(=O)[C@](C)(Cc1ccccc1)NC(=O)[C@@H](NC(=O)CNC(=O)[C@H](CCC(=O)O)NC(=O)C(C)(C)NC(=O)[C@@H](N)Cc1ccc(O)cc1)[C@@H](C)O)[C@@H](C)CC)C(=O)N[C@@H](C)C(=O)N[C@@H](CC(C)C)C(=O)N[C@@H](CC(=O)O)C(=O)N[C@@H](CCCCN)C(=O)N[C@@H](CCCCNC(=O)COCCOCCNC(=O)COCCOCCNC(=O)CC[C@H](NC(=O)CCCCCCCCCCCCCCCCC(=O)O)C(=O)O)C(=O)N[C@@H](Cc1c[nH]cn1)C(=O)N[C@@H](CCC(N)=O)C(=O)NC(C)(C)C(=O)N[C@@H](CC(=O)O)C(=O)N[C@@H](Cc1ccccc1)C(=O)N[C@H](C(=O)N[C@@H](CCC(=O)O)C(=O)N[C@@H](Cc1ccncc1)C(=O)N[C@@H](CC(C)C)C(=O)N[C@@H](CC(C)C)C(=O)N[C@@H](C)C(=O)NCC(=O)NCC(=O)N1CCC[C@H]1C(=O)N[C@@H](CO)C(=O)N[C@@H](CO)C(=O)NCC(=O)N[C@@H](C)C(=O)N1CCC[C@H]1C(=O)N1CCC[C@H]1C(=O)N1CCC[C@H]1C(=O)N[C@@H](CO)C(N)=O)C(C)C

Assays:
Experiment in all cases: cell-based or functional assay
human GLP-1 receptor = human GLP-1 receptor (human, UniProt P43220 24-463)
human glucagon receptor = human glucagon receptor (human, UniProt P47871 26-477)
Chain of human glucagon receptor (P47871 26-477): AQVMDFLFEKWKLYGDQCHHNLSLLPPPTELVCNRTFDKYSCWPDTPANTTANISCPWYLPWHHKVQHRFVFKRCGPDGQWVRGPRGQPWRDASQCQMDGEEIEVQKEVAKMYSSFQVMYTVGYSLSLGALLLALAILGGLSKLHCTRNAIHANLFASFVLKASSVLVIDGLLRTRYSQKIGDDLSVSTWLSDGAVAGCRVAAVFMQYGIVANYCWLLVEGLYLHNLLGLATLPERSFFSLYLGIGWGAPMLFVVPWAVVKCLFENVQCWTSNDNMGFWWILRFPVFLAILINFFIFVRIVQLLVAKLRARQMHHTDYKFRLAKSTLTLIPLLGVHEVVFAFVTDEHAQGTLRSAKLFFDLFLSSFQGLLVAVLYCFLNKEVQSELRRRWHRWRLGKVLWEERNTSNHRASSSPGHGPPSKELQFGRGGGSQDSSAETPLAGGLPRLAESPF

[1] = target: T1, human glucose-dependent insulinotropic …

Binder	hGLP1R cAMP Rel EC50 (human GLP-1 receptor) [µM]	hGcgR cAMP Rel EC50 (human glucagon receptor) [µM]	hGIPR cAMP Rel EC50 [1] [nM]
B1	> 5	1.25	0.0345
B2	> 0.1	> 5	0.282
B3	> 0.1	> 5	0.34
B4	> 5	> 5	0.00937
B5	> 5	> 5	0.00656
B6	> 5	> 5	0.00992
B7	> 5	> 5	0.00933
B8	> 5	> 5	0.0135
B9	> 5	> 5	0.291
B10	0.206	> 5	0.0192
